This is an account of results in article PMC7943578.

Broadly, the stoichiometry N is the number of molecules, sites or subunits per partner or assembly.

The target in assay [1] is CC-Type2-(LaIdGe)4. The assay is described as follows: AUC; sedimentation equilibrium, 70 uM peptide, 20 C, PBS pH 7.4, single species model; self-association of the peptide.
The target in assay [2] is CC-Type2-(LaIdGe)4. The assay is described as follows: AUC; sedimentation velocity with 25% v/v isopropanol, 150 uM peptide, PBS pH 7.4.
In assay [3] the target is CC-Type2-(LaIdGe)4. The assay is described as follows: SEC; Superdex75 10/300 GL, 25% v/v IPA in PBS, samples loaded at 150 uM, monitored at 220 nm. In general terms: Size exclusion chromatography separates by hydrodynamic size, large species first.
Assay [4] has as its target CC-Type2-(LaIdGe)4. The assay is described as follows: AUC; sedimentation velocity, 150 uM peptide, 20 C, 50 krpm, PBS pH 7.4; self-association of the peptide.
Assay [5] deals with CC-Type2-(LaIdGe)4. Briefly: AUC; sedimentation equilibrium with 15% v/v isopropanol, 70 uM peptide, PBS pH 7.4, 30-45 krpm, single ideal species fit.
Assay [6] deals with CC-Type2-(LaIdGe)4. The assay is described as follows: AUC; sedimentation velocity with DPH, absorbance of DPH at 350 nm; 200 uM peptide, 5 uM DPH, 5% v/v DMSO in PBS pH 7.4, 25 C.
Assay [7] concerns the target CC-Type2-(LaIdGe)4-W19BrPhe. Briefly: crystal structure; vapour diffusion at 19 C; 0.05 M sodium HEPES, 5% w/v PEG 4000, 5% v/v 2-propanol, pH 7; SAD phasing on bromine.

Take CC-Type2-(LaIdGe)4 (peptide): the stoichiometry N with CC-Type2-(LaIdGe)4 [1], in the assay with CC-Type2-(LaIdGe)4 [3] and with CC-Type2-(LaIdGe)4 [4] was 6 throughout. Besides, the figures for the stoichiometry N (x monomer mass) with CC-Type2-(LaIdGe)4 [2], with CC-Type2-(LaIdGe)4 [5] and in the assay with CC-Type2-(LaIdGe)4 [6] were 5.5, 5.7 and 6.2, respectively.

The substance CC-Type2-(LaIdGe)4-W19BrPhe (peptide) yielded a stoichiometry N in assay [7] of 6.
